From article PMC9249759, “Analysis of diverse double-strand break synapsis with Polλ reveals basis for unique substrate specificity in nonhomologous end-joining” come the findings set out here.

Series [1] has as its target T1, DNA polymerase lambda catalytic domain with brooch motif (Homo sapiens, UniProt Q9UGP5 235-575).
T1 sequence: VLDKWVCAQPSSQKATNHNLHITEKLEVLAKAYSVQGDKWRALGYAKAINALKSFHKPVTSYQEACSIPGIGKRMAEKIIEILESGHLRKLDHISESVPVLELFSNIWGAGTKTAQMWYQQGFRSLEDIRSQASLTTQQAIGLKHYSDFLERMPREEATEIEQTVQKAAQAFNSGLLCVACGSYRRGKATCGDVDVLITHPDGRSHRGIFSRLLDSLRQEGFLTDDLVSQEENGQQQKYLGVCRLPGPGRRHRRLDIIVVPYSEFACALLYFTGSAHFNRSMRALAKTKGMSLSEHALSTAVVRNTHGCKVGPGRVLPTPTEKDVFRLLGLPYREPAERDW
In words: X-ray crystallography, 1.8 A; dUMPNPP, Na+ (metal A), Mg2+ (metal B); Crystals only: DNA with protein on ice or RT, then 0.91 mM dUMPNPP; SSB cacodylate pH 6.5/KCl/Mg acetate/PEG 8000 RT; DSB.A tripotassium citrate/PEG 3350 4 C; DSB.B Na sulfate/PEG 3350 RT; DSB.C cacodylate pH 6.5/ammonium sulfate/PEG 8K 4 C; DSB.D cacodylate pH 6.5/Ca acetate/PEG 8K 4 C, soaked in Mg acetate. The conditions noted are these: protein: recombinant; tags: GST tag removed by TEV; two duplexes: ACTG:CAGTGC (3' overhang 2 nt) and CGGCAGC:GCCG (3' overhang 3 nt); 2-nt microhomology, 1-nt gap.

Series [2] addresses T2, DNA polymerase lambda catalytic domain with brooch motif (DSB.B crystals) (Homo sapiens, UniProt Q9UGP5 233-575).
T2 sequence: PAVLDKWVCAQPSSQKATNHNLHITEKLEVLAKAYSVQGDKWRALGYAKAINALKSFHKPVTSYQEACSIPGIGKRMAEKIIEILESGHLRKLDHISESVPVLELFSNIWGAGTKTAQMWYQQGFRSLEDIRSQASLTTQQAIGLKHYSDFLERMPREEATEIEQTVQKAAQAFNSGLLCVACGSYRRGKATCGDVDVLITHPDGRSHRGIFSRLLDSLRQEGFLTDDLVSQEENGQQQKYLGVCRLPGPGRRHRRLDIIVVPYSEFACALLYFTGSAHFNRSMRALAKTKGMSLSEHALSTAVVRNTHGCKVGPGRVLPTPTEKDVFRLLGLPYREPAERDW
In words: X-ray crystallography, 2.25 A; dUMPNPP, Mg2+ (metal B), Na+ in HhH2 site; Crystals only: DNA with protein on ice or RT, then 0.91 mM dUMPNPP; SSB cacodylate pH 6.5/KCl/Mg acetate/PEG 8000 RT; DSB.A tripotassium citrate/PEG 3350 4 C; DSB.B Na sulfate/PEG 3350 RT; DSB.C cacodylate pH 6.5/ammonium sulfate/PEG 8K 4 C; DSB.D cacodylate pH 6.5/Ca acetate/PEG 8K 4 C, soaked in Mg acetate. The settings on record: protein: recombinant; tags: GST tag removed by TEV; single-stranded upstream primer plus duplex CGGCAGC:GCCG (3' overhang 3 nt); 2-nt microhomology; primer 5' end mispairs with same primer of neighbouring complex.

Series [3] deals with T1, DNA polymerase lambda catalytic domain …. In words: X-ray crystallography, 1.57 A; dUMPNPP, Mg2+; Crystals only: DNA with protein on ice or RT, then 0.91 mM dUMPNPP; SSB cacodylate pH 6.5/KCl/Mg acetate/PEG 8000 RT; DSB.A tripotassium citrate/PEG 3350 4 C; DSB.B Na sulfate/PEG 3350 RT; DSB.C cacodylate pH 6.5/ammonium sulfate/PEG 8K 4 C; DSB.D cacodylate pH 6.5/Ca acetate/PEG 8K 4 C, soaked in Mg acetate. The settings on record: protein: recombinant; tags: GST tag removed by TEV; 1-nt gap; template with upstream primer and downstream primer.

The target is the same in series [4]. Put plainly: X-ray crystallography, 1.65 A; dUMPNPP, Ca2+/Mg2+ (metal A), Mg2+ (metal B); pre-catalytic; Crystals only: DNA with protein on ice or RT, then 0.91 mM dUMPNPP; SSB cacodylate pH 6.5/KCl/Mg acetate/PEG 8000 RT; DSB.A tripotassium citrate/PEG 3350 4 C; DSB.B Na sulfate/PEG 3350 RT; DSB.C cacodylate pH 6.5/ammonium sulfate/PEG 8K 4 C; DSB.D cacodylate pH 6.5/Ca acetate/PEG 8K 4 C, soaked in Mg acetate. The conditions noted are these: protein: recombinant; tags: GST tag removed by TEV; two duplexes: blunt GCACTG:CAGTGC and CGGCA:GCCG (3' overhang 1 nt); no microhomology.

Series [5] shares this target. Put plainly: X-ray crystallography, 2 A; dUMPNPP, Mg2+; Crystals only: DNA with protein on ice or RT, then 0.91 mM dUMPNPP; SSB cacodylate pH 6.5/KCl/Mg acetate/PEG 8000 RT; DSB.A tripotassium citrate/PEG 3350 4 C; DSB.B Na sulfate/PEG 3350 RT; DSB.C cacodylate pH 6.5/ammonium sulfate/PEG 8K 4 C; DSB.D cacodylate pH 6.5/Ca acetate/PEG 8K 4 C, soaked in Mg acetate. The conditions noted are these: protein: recombinant; tags: GST tag removed by TEV; two duplexes: TACTG:CAGTGC (G:T mismatch at -2, 3' overhang 1 nt) and CGGCAG:GCCG (3' overhang 2 nt); 1-nt microhomology.

B1: DSB.A complementary (dsDNA)
DNA 1: ACTG
DNA 2: CAGTGC
DNA 3: CGGCAGC
DNA 4: GCCG
modifications: 5'-phosphate on GCCG
As for B1, the binding result in series [1] is listed as “binds”.

B2: DSB.B without upstream template (mixed)
DNA: CAGTGC
? 1: CGGCAGC
? 2: GCCG
modifications: 5'-phosphate on GCCG
B2: in series [2], the binding result is listed as “binds”.

B3: 1nt-gapped SSB (dsDNA)
DNA 1: CGGCAGTACTG
DNA 2: CAGTAC
DNA 3: GCCG
modifications: 5'-phosphate on GCCG
On to B3, for which the binding result in series [3] was “binds”.

B4: DSB.D blunt-ended (dsDNA)
DNA 1: GCACTG
DNA 2: CAGTGC
DNA 3: CGGCA
DNA 4: GCCG
modifications: 5'-phosphate on GCCG
In the case of B4, the binding result in series [4] is recorded as “binds”.

B5: DSB.C mismatched (dsDNA)
DNA 1: TACTG
DNA 2: CAGTGC
DNA 3: CGGCAG
DNA 4: GCCG
modifications: 5'-phosphate on GCCG
In the case of B5, the binding result in series [5] is on record as “binds”.
